The record followed here is publication PMC10068764.

The target in the experiment is CA tri-hexamer_(center) (HIV-1). Nature of the experiment: ITC. (ITC needs no label: the signal is the heat of the interaction.)

On to “NUP153^1411–1475/1425–1464△ peptide (25 aa) (from UniProt P49790 1411-1475)”, for which the Kd was determined as 870 nM.

The term Kd denotes the equilibrium constant for the complex coming apart. Read a low Kd as higher affinity.
